Data on 32 sequences can be found in the supplement of paper PMC9170038.

The subject of the data set is MS2 coat protein. Kind of data set: apparent KD of MS2 coat protein; designed switch direction (-1 OFF switch, 1 ON switch): -1; higher = weaker reporter binding. The essentials:
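Normalised cluster fluorescence was curve-fitted, and each design's median over clusters is its apparent KD. Before this, SNAP-549-labelled MS2 coat protein was titrated from 0.7 or 1.5 nM, doubling to 3 µM, over RNA switches transcribed on Illumina chips by stalled E. coli RNA polymerase. Titrations had no input, 200 uM small-molecule ligand, or an oligonucleotide input, and steps lasted 0.8–1.5 h (lowest) to 10–20 min (highest).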

[1] abbreviates: input ligand: microRNA oligo, concentration not stated.
Where [2] appears, read: Eterna round: R95, input ligand: FMN 200 uM.
[3] abbreviates: Eterna round: R95, input ligand: microRNA oligo, concentration not stated.
The mark [4] stands for this setting: Eterna round: R95, input ligand: none.

Take “UUUAAGGUAAUUAAGAUCACAUGAGGAUCACCCAUGUAUAUAUAGGAUAUCAGCUCGAUUAGAGCUGAGAAGGAUAUAUACAUA [ExNG3/6-C1] (Eterna round: R96, puzzle: Exclusion NG 3)”: the “apparent KD of MS2 coat protein” value is 0.0661 µM (input ligand: FMN 200 uM), 0.0333 µM under setting [1] and 0.142 µM (input ligand: none).

In the case of “UUUAAUUGUCACAUGGGUGACAUGAGGAUCACCCAUGUCACAAGCUUUUUGUUCGUCUUAUAAUUAACCCAUGUGAC [Stov1/12-B1] (Eterna round: R97, puzzle: Sensor, turn-off variant 1)”, the “apparent KD of MS2 coat protein” value (input ligand: FMN 200 uM) is 0.0139 µM and the “apparent KD of MS2 coat protein” value (input ligand: none) was determined as 0.0131 µM.

In the case of “UUUAAUUUAAUUAAGAUCACAUGAGGAUCACCCAUGUAUAUAUAGGAUAUCAGCUCGUGUAGAGCUGAGAAGGAUAUAUACAUA [ExNG3/4-A3] (Eterna round: R96, puzzle: Exclusion NG 3)”, the “apparent KD of MS2 coat protein” value was 0.046 µM (input ligand: FMN 200 uM), 0.0359 µM under setting [1] and 0.101 µM (input ligand: none).

Regarding “UUUAAUUUUUUUUUUUUACAAGCUUUUUGCUCGUCUUAUACAUGAGGAUCACCCAUGUAAAUGGAGGAUAAAUUAUC [JMF 29] (puzzle: Sensor v3, turn-off variant 2)”, the “apparent KD of MS2 coat protein” value is, setting by setting: under setting [2], 0.0224 µM; under setting [3], 0.0411 µM; under setting [4], 0.0197 µM.

As for “UUUAAUUUUUUUUUUUUACAAGCUUUUUGCUCGUCUUAUACAUGAGGAUCACCCAUGUAAAUGGAGGGUAAAUUAUC [JMF 83] (puzzle: Sensor v3, turn-off variant 2)”, the “apparent KD of MS2 coat protein” value came to 0.0148 µM under setting [2], 0.032 µM under setting [3] and 0.0111 µM under setting [4].

Consider “UUUAAUUUUUUUUUUUUACAAGCUUUUUGCUCGUCUUAUACAUGAGGAUCACCCAUGUAAGUGGAAGAUAAAUUAUC [JMF 10] (puzzle: Sensor v3, turn-off variant 2)”, for which the “apparent KD of MS2 coat protein” value was determined as 0.0182 µM under setting [2], 0.0214 µM under setting [3] and 0.0165 µM under setting [4].

For “UUUAAUUUUUUUUUUUUACAAGCUUUUUGCUCGUCUUAUACAUGAGGAUCACCCAUGUAGGUGGGAAGUAAAUUAUC [JMF 57] (puzzle: Sensor v3, turn-off variant 2)”, the “apparent KD of MS2 coat protein” value is 0.033 µM under setting [2], 0.0975 µM under setting [3] and 0.0375 µM under setting [4].

As to “UUUAAUUUUUUUUUUUUACAAGCUUUUUGCUCGUCUUAUACAUGAGGAUCACCCAUGUGAAUGGAAGAUAAAUUAUC [JMF 8] (puzzle: Sensor v3, turn-off variant 2)”, the “apparent KD of MS2 coat protein” value under setting [2] came out at 0.0178 µM, the “apparent KD of MS2 coat protein” value under setting [3] came to 0.0163 µM and the “apparent KD of MS2 coat protein” value under setting [4] stood at 0.0186 µM.

With “UUUAAUUUUUUUUUUUUACAAGCUUUUUGCUCGUCUUAUACAUGAGGAUCACCCAUGUGAAUGGAGGGUAAAUUAUC [JMF 84] (puzzle: Sensor v3, turn-off variant 2)”, the “apparent KD of MS2 coat protein” value runs as follows: under setting [2], 0.0194 µM; under setting [3], 0.0425 µM; under setting [4], 0.0168 µM.

Turning to “UUUAAUUUUUUUUUUUUACAAGCUUUUUGCUCGUCUUAUACAUGAGGAUCACCCAUGUGGGUGGGAAGUAAAUUAUC [JMF 56] (puzzle: Sensor v3, turn-off variant 2)”, the “apparent KD of MS2 coat protein” value by setting is: under setting [2], 0.059 µM; under setting [3], 0.0126 µM; under setting [4], 0.11 µM.

“UUUACAAGCUAUAGAUCCCACAUGAGGAUCACCCAUGUUGCUGCCGUGAGGUAGCUUUUAACUAUUGCUCGUCUUAU [JL TOV1 3.36] (Eterna round: R97, puzzle: Sensor, turn-off variant 1)”: the “apparent KD of MS2 coat protein” value came out at 0.15 µM (input ligand: FMN 200 uM) and 0.181 µM (input ligand: none).

On to “UUUAGUUUAGGAUAUGUAGAUUUUAACAUGAGGAUCACCCAUGUAGAUCCUGAAUUAACUACAGAAGGAAACAUUU [Mod of Brourd 13 - Jieux - Exclusion 5] (Eterna round: R97, puzzle: Exclusion 5)”, for which the “apparent KD of MS2 coat protein” value (input ligand: FMN 200 uM) was found to be 0.514 µM and the “apparent KD of MS2 coat protein” value (input ligand: none) turned out to be 0.123 µM.

For “UUUAUAUAUGAAGGAUAUACUUAACAUGAGGAUCACCCAUGUGGUGUUGUGAGUGAGUGAGUUUAGUAGAAGGUCAAUGAUUUU [JMF's solution 70] (Eterna round: R96, puzzle: Exclusion NG 2)”, the “apparent KD of MS2 coat protein” value runs as follows: (input ligand: FMN 200 uM) 0.81 µM; under setting [1], 0.305 µM; (input ligand: none) 0.36 µM.

With “UUUAUGUCAGGAUAUACAUGAGGAUCACCCAUGUAUACCUUAAGGUAUACAUGGGAAUGUAGAAGGGACCUCCU [Omei Ex3 Pseudoloop 8] (Eterna round: R97, puzzle: Exclusion 3)”, the “apparent KD of MS2 coat protein” value was found to be 0.0266 µM (input ligand: FMN 200 uM) and 0.0467 µM (input ligand: none).

“UUUAUGUCAGGAUAUGAUUAGAUCUACUUCGGUAGAUCUAAUCAGAAGGGACAUGAGGAUCACCCAUGUUUUUU [Ex4 - 3 - 16] (puzzle: Exclusion 4)”: under setting [3], the “apparent KD of MS2 coat protein” value was 0.0416 µM.

With “UUUAUGUGAGGAUAUAGUACUCCUUCUAUUAUUUUUGAGUACUAGAAGGCACAUGAGGAUCACCCAUGUAGUAC [Ex4 - 3 - 38] (puzzle: Exclusion 4)”, under setting [3], the “apparent KD of MS2 coat protein” value is 0.0221 µM.

For the sequence “UUUCUUGGGCAAGGAUAUCCUGUGCGGUUCCGGCUCGUGUCUGUCACAUGAGGAUCACCCAUGUGGGAGAAGGUGCCUGCGGUU [Design 83] (Eterna round: R96, puzzle: Exclusion NG 2)”, the “apparent KD of MS2 coat protein” value was determined as 0.0154 µM (input ligand: FMN 200 uM), 0.0107 µM under setting [1] and 0.0156 µM (input ligand: none).

Take “UUUGAUGUUGAGGAUAUGCUUUUUUUUAUUAUAGCAGAAGGCGAUACAUGAGGAUCACCCAUGUUCAUGGCUUU [JR_E6_Sub098] (puzzle: Exclusion 6)”: under setting [3], the “apparent KD of MS2 coat protein” value was found to be 0.0141 µM.

Regarding “UUUGGGCAAGCAUGAUCCCACAUGAGGAUCACCCAUGUGUUCGUCUUAUAGGCUGCUGAGGCUUUUGCCUCGGUGGC [LRO Sensor-off var1-01 loose mod of D91 from Mat747] (Eterna round: R97, puzzle: Sensor, turn-off variant 1)”, the “apparent KD of MS2 coat protein” value came out at 0.751 µM (input ligand: FMN 200 uM) and 0.965 µM (input ligand: none).

Take “UUUGUACAUGAGGAUCACCCAUGUCAGGAUAUGUCAUCGCCGUCUGCCAGACGGCGUCACAGAAGGGACAUGCA [EX1 C.16] (Eterna round: R97, puzzle: Exclusion 1)”: the “apparent KD of MS2 coat protein” value by setting is: (input ligand: FMN 200 uM) 0.104 µM; (input ligand: none) 0.0341 µM.

As to “UUUGUAUAGGUAGGAUAUACUUUCAAUUUUUUUUUCCUUACAUGAGGAUCACCCAUGUUUACAUUGUAGAAGGACCUCAUUGUU [JR_ExcNG2_Sub049] (Eterna round: R96, puzzle: Exclusion NG 2)”, the “apparent KD of MS2 coat protein” value under setting [1] stood at 0.325 µM.

In the case of “UUUGUUGUUGUGAGGAUAUCGUUGUUAUUUUGAAACGAGAAGGCACAUGAGGAUCACCCAUGUUUGUUGUUGGU [JR_BMOE4_Sub059] (puzzle: Brourd's mod of Exclusion 4)”, under setting [3], the “apparent KD of MS2 coat protein” value was 0.0488 µM.

With “UUUGUUUAUGUAGGAUAUGCCUGGCGUGCCUUCGCAGAAGGACAUGAGGAUCACCCAUGUAUUGCGGUCUGCGUUCAGAUCGCG [salish99_ExNG1_r4_029] (Eterna round: R96, puzzle: Exclusion NG 1)”, the “apparent KD of MS2 coat protein” value (input ligand: FMN 200 uM) was found to be 0.052 µM, the “apparent KD of MS2 coat protein” value under setting [1] amounted to 0.0348 µM and the “apparent KD of MS2 coat protein” value (input ligand: none) was determined as 0.0432 µM.

For the sequence “UUUGUUUAUGUAGGAUAUGCCUGGCGUGCCUUUGCAGAAGGACAUGAGGAUCACCCAUGUAACAUGAGGCUCACCCAUGUCGCC [salish99_ExNG1_r04_113] (Eterna round: R96, puzzle: Exclusion NG 1)”, the “apparent KD of MS2 coat protein” value was found to be 0.134 µM (input ligand: FMN 200 uM), 0.0916 µM under setting [1] and 0.165 µM (input ligand: none).

“UUUGUUUAUGUAGGAUAUGCCUGGCGUGCCUUUGCAGAAGGACAUGAGGAUCACCCAUGUAACAUGAGGCUCACCCAUGUCGCU [salish99_ExNG1_r04_111] (Eterna round: R96, puzzle: Exclusion NG 1)”: the “apparent KD of MS2 coat protein” value is, setting by setting: (input ligand: FMN 200 uM) 0.24 µM; under setting [1], 0.18 µM; (input ligand: none) 0.292 µM.

With “UUUUAACAAGCGAGGUCCUACAUGAGGAUCACCCAUGUAUGUCAUGGAUUCCAUGGUCUUUUUGCUCGUCUUGUGUG [jl TITIN mod 8] (Eterna round: R97, puzzle: Sensor, turn-off variant 1)”, the “apparent KD of MS2 coat protein” value (input ligand: FMN 200 uM) came to 0.103 µM and the “apparent KD of MS2 coat protein” value (input ligand: none) came out at 0.105 µM.

Consider “UUUUAACAUGAGGAUCACCCAUGUGAGGAUAUCGAAAUUUAUAUUAAUAUUAUUAAAACGAGAAGGCACAUUUU [JMF 35] (puzzle: Exclusion 1)”, for which the “apparent KD of MS2 coat protein” value under setting [3] was determined as 0.0629 µM.

For the sequence “UUUUAACAUGAGGAUCACCCAUGUGAGGAUAUCGAAAUUUAUAUUUAUAUUAAUAUAUCGAGAAGGCACAUUUU [JMF 80] (puzzle: Exclusion 1)”, the “apparent KD of MS2 coat protein” value under setting [3] turned out to be 0.0931 µM.

As to “UUUUAACAUGAGGAUCACCCAUGUGAGGAUAUCGAAAUUUAUAUUUAUAUUAAUUAUUCGAGAAGGCACAUUUU [JMF 85] (puzzle: Exclusion 1)”, under setting [3], the “apparent KD of MS2 coat protein” value was 0.131 µM.

For the sequence “UUUUAACAUGAGGAUCACCCAUGUGAGGAUAUCGUUAUUUUUAUUAAUAUUAAUAAAACGAGAAGGCACAUUUU [JMF 14] (puzzle: Exclusion 1)”, under setting [3], the “apparent KD of MS2 coat protein” value is 0.0983 µM.

In the case of “UUUUACAAGCUAAGAUCCUACAUGAGGAUCACCCAUGUGGUCCGGUGACGUGAGUCACCGGACUUAGCUCGUCUUGG [salish99_S_TOV1_R5_087] (Eterna round: R97, puzzle: Sensor, turn-off variant 1)”, the “apparent KD of MS2 coat protein” value was determined as 0.0695 µM (input ligand: FMN 200 uM) and 0.0847 µM (input ligand: none).

Turning to “UUUUACAUGCUGAGAUCCUACAUGAGGAUCACCCAUGUGGUCCGGUGACUUUUGUCACCGGAUUUUGCUCGUCUUGU [salish99_S_TOV1_R5_101] (Eterna round: R97, puzzle: Sensor, turn-off variant 1)”, the “apparent KD of MS2 coat protein” value (input ligand: FMN 200 uM) was 0.0848 µM and the “apparent KD of MS2 coat protein” value (input ligand: none) was determined as 0.108 µM.
